{"source": "patent US11331375B2", "about": "“Compositions and methods for regulating leukocyte adhesion” (University of Virginia Patent Foundation, priority 2015, dated 2022)", "system": "isolated mesenteric venules", "assay": "LDH release assay in perfused venules", "format": "cell-based, mouse", "settings": "perfusion of TNFα", "protocol": "Isolated mesenteric venules were cannulated and perfused with recombinant mouse TNFα for 20 minutes followed by lysis buffer. Perfusate samples were collected as described above and LDH activity was assayed with the Cytotoxicity Detection Kit Plus (Roche) according to the manufacturer's protocol as an output for cell death. Data are expressed as mean±SEM (n=3 independent experiments)."}
{"substance": "TNFα", "values": [{"measurement": "cell death (LDH accumulation in perfusates)", "result": "did not induce cell death"}]}
